Tests used:
[1] = biological target: Enterococcus faecalis FabN dehydratase/isomerase, hexahistidine-tagged (Enterococcus faecalis (strain FA2-2)); test: SEC
[2] = biological target: Enterococcus faecalis FabO 3-ketoacyl-ACP synthase I, hexahistidine-tagged (Enterococcus faecalis (strain FA2-2)); test: SEC

| Substance | stoichiometry N [1] | stoichiometry N [2] |
| --- | --- | --- |
| Enterococcus faecalis FabN dehydratase/isomerase, hexahistidine-tagged (enzyme) | 6 |  |
| Enterococcus faecalis FabO 3-ketoacyl-ACP synthase I, hexahistidine-tagged (enzyme) |  | 2 |

— PMC9671860
